Data published in patent publication US20180280496A1.
Where two headings read alike, the source gives them in different places.

Assays:
[1] = biological target: HLA-B*40:01; details: chains peptide; modification not given
[2] = biological target: HLA-A*32:01; details: chains peptide; modification not given
[3] = biological target: HLA-B*40:01; details: chains peptide; modification not given; remark: listed apart in the source
[4] = biological target: HLA-A*32:01; details: chains peptide; modification not given; remark: listed apart in the source
[5] = biological target: A*11:01 (human), P04439; details: modification not given
[6] = biological target: A*03:01 (human), P04439; details: modification not given
[7] = biological target: A*11:01 (human), P04439; details: modification not given; remark: listed apart in the source
[8] = biological target: T1, A*03:01 (human), P04439; details: modification not given
T1 chain: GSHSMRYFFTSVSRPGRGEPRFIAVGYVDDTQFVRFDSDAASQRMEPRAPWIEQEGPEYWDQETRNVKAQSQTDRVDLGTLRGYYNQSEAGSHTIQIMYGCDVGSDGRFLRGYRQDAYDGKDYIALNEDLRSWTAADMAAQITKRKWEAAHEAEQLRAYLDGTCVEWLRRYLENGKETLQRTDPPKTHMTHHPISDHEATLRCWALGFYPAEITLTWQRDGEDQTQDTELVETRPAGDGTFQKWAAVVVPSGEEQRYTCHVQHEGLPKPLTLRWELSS

[9] = biological target: A*11:01 (human), P04439; details: modification not given; remark: listed apart in the source
[10] = biological target: T1, A*03:01 (human), P04439; details: modification not given
[11] = biological target: A*03:01 (human), P04439; test: ProImmune REVEAL MHC class I-peptide binding assay
[12] = biological target: A*11:01 (human), P04439; test: ProImmune REVEAL MHC class I-peptide binding assay

B1: SEQ ID NO: 310 serotype 1 (peptide)
chain: KQWFLDLPL
For B1, the IC50 [1] was 398 nM and the IC50 [2] was 8 nM.

B2: SEQ ID NO: 310 serotype 4 (peptide)
chain: KQWFLDLPL
B2 showed an IC50 [3] of 398 nM and an IC50 [4] of 8 nM.

B3: SEQ ID NO: 311 serotype 1 (peptide)
chain: ALKLSWFKK
B3 gave an IC50 [5] of 59 nM and an IC50 [6] of 42 nM.

B4: SEQ ID NO: 311 serotype 2 (peptide)
chain: QLKLNWFKK
B4 gave an IC50 [7] of 778 nM and an IC50 [8] of 151 nM.

B5: SEQ ID NO: 311 serotype 3 (peptide)
chain: ALKINWYRK
For B5, the IC50 [9] was 376 nM and the IC50 [10] was 193 nM.

B6: … (peptide)
peptide: MCHATFTMR
modifications: not checked
For B6, the REVEAL score at 0 h [11] was 86.8 and the REVEAL score at 0 h [12] was 91.
